# Measured values reported in patent publication US20150231236A1, “METHODS FOR TREATING PATIENTS WITH HYPERCHOLESTEROLEMIA THAT IS NOT ADEQUATELY CONTROLLED BY MODERATE-DOSE STATIN THERAPY” (Regeneron Pharmaceuticals, Inc., priority 2014, published 2015).
# Columns and labels:
# [1] = tested on: patients with hypercholesterolemia at high CV risk not adequately controlled with atorvastatin (20 mg or 40 mg); assay: Example 2: safety, treatment-emergent adverse events in pooled treatment groups
# Method: For the pooled data, three treatment groups are formed by combining treatment arms regardless of the atorvastatin doses as follows:
# (2) EZE treatment group: pooling EZE+atorva 20 mg arm and EZE+atorva 40 mg arm;
# [2] = tested on: patients with hypercholesterolemia at high CV risk not adequately controlled with rosuvastatin (10 mg or 20 mg); conditions: in vivo
# [3] = as reported elsewhere; cited from earlier work
# [4] = Safety Population, pooled treatment groups
compound,measurement,setting,value
"mAb316P: human anti-PCSK9 antibody; heavy chain SEQ ID NO:5, light chain SEQ ID NO:9",General Allergic TEAEs (SMQ Hypersensitivity),[1]; [4],2 (1.9%) patients (%)
same,"SOC Injury, poisoning and procedural complications",[1]; [4],15 (14.4%) patients (%)
same,SOC Musculoskeletal and connective tissue disorders,[1]; [4],24 (23.1%) patients (%)
same,"SOC Neoplasms benign, malignant and unspecified (incl cysts and polyps)",[1]; [4],3 (2.9%) patients (%)
same,SOC Nervous system disorders,[1]; [4],10 (9.6%) patients (%)
same,TEAEs,[1]; [4],68 (65.4%) patients (%)
same,Treatment-emergent SAEs,[1]; [4],4 (3.8%) patients (%)
same,Treatment-emergent injection site reactions (ISRs),[1]; [4],3 (2.9%) patients (%)
same,Treatment-emergent neurologic disorders,[1]; [4],3 (2.9%) patients (%)
same,discontinued study treatment early due to a treatment emergent adverse event (TEAE),[1]; [4],7 (6.7%) patients (%)
same,Treatment-emergent cardiovascular events adjudicated positively,"[1]; Safety Population, pooled treatment groups, ischemia driven coronary revascularization procedure",2 (1.9%) patients (%)
same,TEAE Back pain,[1]; pooled mAb316P group,7 patients
same,TEAE Headache,[1]; pooled mAb316P group,4 patients
same,TEAE Hypertension,[1]; pooled mAb316P group,5 patients
same,TEAE Muscle spasms,[1]; pooled mAb316P group,4 patients
same,TEAE influenza,[1]; pooled mAb316P group,3 patients
same,TEAE nasopharyngitis,[1]; pooled mAb316P group,5 patients
same,TEAE upper respiratory tract infection,[1]; pooled mAb316P group,5 patients
same,TEAE urinary tract infection,[1]; pooled mAb316P group,3 patients
same,2 consecutive calculated LDL-C measurements below 25 mg/dL,[2],13 (12.6%) patients (%)
same,General Allergic TEAEs,[2],11 (10.7%) patients (%)
same,SOC General disorders and administration site conditions,[2],15 (14.6%) patients (%)
same,SOC Immune system disorders,[2],1 (1.0%) patients (%)
same,SOC Psychiatric disorders,[2],5 (4.9%) patients (%)
same,"SOC Respiratory, thoracic and mediastinal disorders",[2],7 (6.8%) patients (%)
same,SOC Skin and subcutaneous tissue disorders,[2],8 (7.8%) patients (%)
same,TEAE accidental overdose,[2],3 patients
same,TEAE arthralgia,[2],4 patients
same,TEAE constipation,[2],2 patients
same,TEAE diarrhea,[2],2 patients
same,TEAE dizziness,[2],3 patients
same,TEAE fatigue,[2],3 patients
same,TEAE hypokalaemia,[2],2 patients
same,TEAE laceration,[2],3 patients
same,TEAE local swelling,[2],2 patients
same,TEAE myalgia,[2],4 patients
same,TEAE nasopharyngitis,[2],4 patients
same,TEAE nausea,[2],3 patients
same,TEAE pain in extremity,[2],2 patients
same,TEAE sciatica,[2],2 patients
same,TEAEs,[2],58 (56.3%) patients (%)
same,Treatment-emergent SAEs,[2],6 (5.8%) patients (%)
same,Treatment-emergent cardiovascular events adjudicated positively,[2],Zero
same,Treatment-emergent neurocognitive disorders,[2],1 (1.0%) patients (%)
same,Treatment-emergent neurologic disorders,[2],2 (1.9%) patients (%)
same,discontinued study treatment early due to a treatment emergent adverse event,[2],5 (4.9%) patients (%)
same,tolerability,[2],well tolerated
"CC(C)c1nc(N(C)S(C)(=O)=O)nc(-c2ccc(F)cc2)c1/C=C/[C@@H](O)C[C@@H](O)CC(=O)O [rosuvastatin, reference compound]",reduction in LDL-C levels when switching from atorvastatin 40 mg per day to rosuvastatin 40 mg per day,[3],~8%
